Measured values taken from patent US12173330B2, “Method for producing hydroxy-L-pipecolic acid” (API CORPORATION, priority 2015, dated 2024).

What was measured:
[1] = substrate: O=C(O)[C@@H]1CCCCN1; test: purified protein, by the assay type; conditions: other: substrate: L-pipecolic acid, 20 mmol/L 2-oxoglutaric acid, 30° C.
[2] = substrate: O=C(O)[C@@H]1CCCN1; test: purified protein, by the assay type; conditions: other: substrate: L-proline, 20 mmol/L 2-oxoglutaric acid, 30° C.

| Protein | Km [1] | Vmax [1] | Km [2] | Vmax [2] |
| --- | --- | --- | --- | --- |
| Xenorhabdus doucetiae FRM16 L-proline cis-4-hydroxylase XdPH, SEQ ID NO: 8 (Xenorhabdus doucetiae) (protein) MMSAKLLASIELNQEQIEHDLNIVGSEILDVAYSEYACGNWGTITLWNHSGDAGDQTSREYVGQARPTELGQQLDCINQLIRNNFNISLIKSVRIFRSYNGGAIYPHIDYLEFNQGFKRVHLVLKSDRSCLNSEENTVYHMLPGEVWFVDGHSAHSAMSLSRVGKYSLVLDFDSGAKFEDLYSESHTLCVDNLEPDIIHDRQPLPTSLRDSLAHIAEHADEFNIQSILFLATRFHFSYAVSIREYFQLLDECFSRNPYKSVRERYEALKDILVRSGYTSHNVNHFNSLSGVTIG | 300 µM | 1.14 U/mg-protein | 310 µM |  |
| Sinorhizobium meliloti 1021 L-proline cis-4-hydroxylase SmPH, SEQ ID NO: 10 (Sinorhizobium meliloti 1021) (protein) MSTHFLGKVKFDEARLAEDLSTLEVAEFSSAYSDFACGKWEACVLRNRTGMQEEDIVVSHNAPALATPLSKSLPYLNELVETHFDCSAVRYTRIVRVSENACIIPHSDYLELDETFTRLHLVLDTNSGCANTEEDKIFHMGLGEIWFLDAMLPHSAACFSKTPRLHLMIDFEATAFPESFLRNVEQPVTTRDMVDPRKELTDEVIEGILGFSIIISEANYREIVSILAKLHFFYKADCRSMYDWLKEICKRRGDPALIEKTASLERFFLGHRERGEVMTY | 310 µM | 0.03 U/mg-protein | 580 µM |  |
| Catenulispora acidiphila NBRC102108 L-proline cis-4-hydroxylase CaPH, SEQ ID NO: 6 (Catenulispora acidiphila DSM 44928) (protein) MRTQYVAALELDEGRLAKDLETSASFNYSEAYSNYLIGGPWKSAMLYSAGGDAGDGLLTDYDYRQSSDFTDYGRQMPYLQELISTSVDLSRLTFVRLARFAKSVIVPHRDFLELEEIPEDKRSAHRLHIPLATHEECFFSEDNVVYRMRAGELWYFDASRIHSVVSFAEEPRIHLIFDFADRPGAGSLVTVPGEPEGAGVPAASAVDRPQLSDAERAALARLADVLTMDTFSEIFSVLVKKHFRRDGGEHFVWDTLTALARACPDPAVLPHTQELRRYFTLERPSGSGQA |  |  | 8870 µM | 0.02 U/mg-protein |
